Experimental data published in PMC1140370.
Where two headings read alike, the source gives them in different places.

Experiments:
Assay in all cases: EMSA
[1] = molecular target: T1, Mcm4/6/7 complex (mouse, UniProt P49717;Q61881;P97311 1-862;1-719;1-821)
[2] = molecular target: T1, Mcm4/6/7 complex; remark: listed apart in the source
[3] = molecular target: T1, Mcm4/6/7 complex; remark: listed apart in the source
[4] = molecular target: T1, Mcm4/6/7 complex; remark: listed apart in the source
[5] = molecular target: T1, Mcm4/6/7 complex; remark: listed apart in the source

T1 sequence (P49717 whole entry, chain 1 of 3): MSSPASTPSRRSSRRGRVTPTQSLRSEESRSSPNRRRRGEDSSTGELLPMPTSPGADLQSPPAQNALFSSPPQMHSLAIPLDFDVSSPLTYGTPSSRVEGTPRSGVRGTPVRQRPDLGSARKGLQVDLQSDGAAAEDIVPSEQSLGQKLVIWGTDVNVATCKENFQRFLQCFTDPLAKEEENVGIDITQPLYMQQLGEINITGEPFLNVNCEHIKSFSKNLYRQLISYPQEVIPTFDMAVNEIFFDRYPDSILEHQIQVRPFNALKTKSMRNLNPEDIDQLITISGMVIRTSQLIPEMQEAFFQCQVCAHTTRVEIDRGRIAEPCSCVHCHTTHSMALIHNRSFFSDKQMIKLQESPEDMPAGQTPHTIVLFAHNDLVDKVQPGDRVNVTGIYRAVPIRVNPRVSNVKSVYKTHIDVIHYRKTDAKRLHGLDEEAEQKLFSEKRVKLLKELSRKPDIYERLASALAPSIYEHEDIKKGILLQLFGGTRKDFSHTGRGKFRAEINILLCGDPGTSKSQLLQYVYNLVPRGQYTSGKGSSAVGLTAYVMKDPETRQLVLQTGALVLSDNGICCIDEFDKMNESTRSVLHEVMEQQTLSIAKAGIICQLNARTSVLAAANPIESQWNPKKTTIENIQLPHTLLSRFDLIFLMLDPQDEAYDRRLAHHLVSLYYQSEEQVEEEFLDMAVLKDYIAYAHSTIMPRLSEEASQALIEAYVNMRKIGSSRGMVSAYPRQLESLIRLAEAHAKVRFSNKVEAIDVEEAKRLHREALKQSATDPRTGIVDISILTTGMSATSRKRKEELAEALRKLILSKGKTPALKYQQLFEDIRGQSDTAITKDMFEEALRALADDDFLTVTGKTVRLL
T1 sequence (Q61881 whole entry, chain 2 of 3): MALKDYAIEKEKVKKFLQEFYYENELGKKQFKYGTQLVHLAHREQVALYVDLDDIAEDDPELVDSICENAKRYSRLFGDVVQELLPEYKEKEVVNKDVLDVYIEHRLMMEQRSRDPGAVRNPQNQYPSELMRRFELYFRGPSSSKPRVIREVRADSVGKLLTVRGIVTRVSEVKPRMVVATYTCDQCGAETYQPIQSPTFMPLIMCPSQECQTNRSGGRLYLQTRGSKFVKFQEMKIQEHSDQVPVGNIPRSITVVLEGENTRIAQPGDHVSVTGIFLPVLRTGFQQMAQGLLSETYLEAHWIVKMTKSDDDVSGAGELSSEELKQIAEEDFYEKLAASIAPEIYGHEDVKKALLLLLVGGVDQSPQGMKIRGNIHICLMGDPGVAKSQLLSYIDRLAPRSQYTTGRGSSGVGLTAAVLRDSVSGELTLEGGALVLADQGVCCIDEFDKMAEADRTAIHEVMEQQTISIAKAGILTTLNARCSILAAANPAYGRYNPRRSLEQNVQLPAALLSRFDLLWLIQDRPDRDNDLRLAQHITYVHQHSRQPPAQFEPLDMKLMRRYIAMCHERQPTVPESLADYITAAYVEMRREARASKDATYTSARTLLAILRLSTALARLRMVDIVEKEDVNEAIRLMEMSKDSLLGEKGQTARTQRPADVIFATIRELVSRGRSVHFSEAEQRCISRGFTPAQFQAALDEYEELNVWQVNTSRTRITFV
T1 sequence (P97311 whole entry, chain 3 of 3): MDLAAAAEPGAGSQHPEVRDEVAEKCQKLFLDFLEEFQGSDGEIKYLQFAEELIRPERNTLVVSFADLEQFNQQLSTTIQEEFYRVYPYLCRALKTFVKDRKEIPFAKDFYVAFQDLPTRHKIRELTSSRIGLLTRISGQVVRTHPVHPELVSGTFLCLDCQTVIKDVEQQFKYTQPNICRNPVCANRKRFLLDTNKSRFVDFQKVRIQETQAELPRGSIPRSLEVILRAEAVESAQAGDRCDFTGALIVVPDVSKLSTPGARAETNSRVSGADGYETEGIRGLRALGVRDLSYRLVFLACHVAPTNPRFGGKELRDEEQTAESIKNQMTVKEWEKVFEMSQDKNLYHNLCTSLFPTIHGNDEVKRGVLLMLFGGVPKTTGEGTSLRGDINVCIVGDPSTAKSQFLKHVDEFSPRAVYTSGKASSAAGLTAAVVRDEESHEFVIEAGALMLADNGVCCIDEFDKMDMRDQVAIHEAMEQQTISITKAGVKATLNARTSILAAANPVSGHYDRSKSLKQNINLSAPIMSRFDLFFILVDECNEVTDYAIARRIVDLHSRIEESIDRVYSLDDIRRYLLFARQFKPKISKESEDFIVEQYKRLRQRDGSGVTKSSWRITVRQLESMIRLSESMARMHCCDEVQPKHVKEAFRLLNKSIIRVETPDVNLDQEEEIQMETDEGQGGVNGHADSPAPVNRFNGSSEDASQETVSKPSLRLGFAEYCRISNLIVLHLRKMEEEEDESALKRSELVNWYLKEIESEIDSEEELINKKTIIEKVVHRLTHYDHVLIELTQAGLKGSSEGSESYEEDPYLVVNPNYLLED

B1: Bub-T40 (mixed)
DNA 1: GTTTTCCCAGTCACGACGTTGTAAAACGACTTTTTTTTTTTTTTTTTTTTTTTTTTTTTTTTTTTTTTTTTACCGAGCTCGAATTCGTAATCATGGTCAT
DNA 2: ATGACCATGATTACGAATTCGAGCTCGGTATTTTTTTTTTTTTTTTTTTTTTTTTTTTTTTTTTTTTTTTGTCGTTTTACAACGTCGTGACTGGGAAAAC
binding result [1]: binds

B2: Bub-T50 (mixed)
DNA 1: GTTTTCCCAGTCACGACGTTGTAAAACGACTTTTTTTTTTTTTTTTTTTTTTTTTTTTTTTTTTTTTTTTTTTTTTTTTTTACCGAGCTCGAATTCGTAATCATGGTCAT
DNA 2: ATGACCATGATTACGAATTCGAGCTCGGTATTTTTTTTTTTTTTTTTTTTTTTTTTTTTTTTTTTTTTTTTTTTTTTTTTGTCGTTTTACAACGTCGTGACTGGGAAAAC
binding result [1]: binds

B3: Bub-T30 (mixed)
DNA 1: GTTTTCCCAGTCACGACGTTGTAAAACGACTTTTTTTTTTTTTTTTTTTTTTTTTTTTTTTACCGAGCTCGAATTCGTAATCATGGTCAT
DNA 2: ATGACCATGATTACGAATTCGAGCTCGGTATTTTTTTTTTTTTTTTTTTTTTTTTTTTTTGTCGTTTTACAACGTCGTGACTGGGAAAAC
binding result [2]: binds

B4: Bub-T20 (mixed)
DNA 1: GTTTTCCCAGTCACGACGTTGTAAAACGACTTTTTTTTTTTTTTTTTTTTTACCGAGCTCGAATTCGTAATCATGGTCAT
DNA 2: ATGACCATGATTACGAATTCGAGCTCGGTATTTTTTTTTTTTTTTTTTTTGTCGTTTTACAACGTCGTGACTGGGAAAAC
binding result [3]: binds

B5: 3' dT50-extension (mixed)
DNA 1: GTTTTCCCAGTCACGACGTTGTAAAACGACGGCCAGTTTTTTTTTTTTTTTTTTTTTTTTTTTTTTTTTTTTTTTTTTTTTTTTTTT
DNA 2: ACTGGCCGTCGTTTTACAACGTCGTGACTGGGAAAAC
binding result [4]: binds

B6: A-fork[3'] (mixed)
DNA 1: CGCATCGCCCACCTGCCTCTGGTGGAGGAGCTGCGTGCACTGAGGCAGTTGCACCTGAACCAGCTGATCCGTGCCGCTGGCGTGGTGGCCGCCTGCGCCGGAGTC
DNA 2: GGGTGAACCTGCAGGTGGGCAAAGATGTCCTAGCAAGGCACTGGTAGAATGGTGCAACTGCCTCAGTGCACGCAGCTCCTCCACCAGAGGCAGGTGGGCGATGCG
DNA 3: GACTCCGGCGCAGGCGGCCACCACGCCAGCGGCACGGATCAGCTGGTTCA
binding result [5]: binds

B7: A-fork[5'] (mixed)
DNA 1: B6 DNA 1
DNA 2: B6 DNA 2
DNA 3: ATTCTACCAGTGCCTTGCTAGGACATCTTTGCCCACCTGCAGGTTCACCC
binding result [5]: binds
